Values joined by “and” are separate entries in the source; they are usually repeats but may differ in a detail not shown here. Identical values can stand only once.
B1: Cold shock protein CspB, P41016 (parent)
chain: MQRGKVKWFNNEKGYGFIEVEGGSDVFVHFTAIQGEGFKTLEEGQEVSFEIVQGNRGPQAANVVKL

Variants of: B1
Settings: Bacillus caldolyticus; pH 7; 25 °C; GdnHCl; Fluorescence; sodium cacodylate 100 mM; reversible: yes; structure 1C9O; whole UniProt chain shown

Variant | denaturant m value | denaturant midpoint (higher = more stable) | unfolding free energy | ddG of mutation (higher = less stable)
F38W L66C | 1.97 kcal/mol/M and 1.9 kcal/mol/M and 1.54 kcal/mol/M | 2.14 M and 2.11 M and 1.83 M | 4.21 kcal/mol and 4.02 kcal/mol and 2.82 kcal/mol | –
E50W | 1.69 kcal/mol/M | 2.18 M | 3.7 kcal/mol | -0.3 kcal/mol
E50W S24C | 1.64 kcal/mol/M and 1.43 kcal/mol/M | 2.09 M and 2.05 M | 3.44 kcal/mol and 2.92 kcal/mol | 0.8 kcal/mol and 0.3 kcal/mol
F38W | 1.75 kcal/mol/M | 2.18 M | 3.8 kcal/mol | -0.7 kcal/mol
E50W L66C | 1.97 kcal/mol/M and 1.54 kcal/mol/M | 1.64 M and 1.68 M | 3.23 kcal/mol and 2.58 kcal/mol | 1.7 kcal/mol and 4.4 kcal/mol
